{"source": "patent US6870041B1", "about": "“MurE protein and gene of pseudomonas aeruginosa” (priority 1999, dated 2005)", "key": {"E. coli MurE": {"biological_target": "T1, E. coli MurE (Escherichia coli, UniProt P22188)", "T1 sequence (P22188 whole entry, looked up)": "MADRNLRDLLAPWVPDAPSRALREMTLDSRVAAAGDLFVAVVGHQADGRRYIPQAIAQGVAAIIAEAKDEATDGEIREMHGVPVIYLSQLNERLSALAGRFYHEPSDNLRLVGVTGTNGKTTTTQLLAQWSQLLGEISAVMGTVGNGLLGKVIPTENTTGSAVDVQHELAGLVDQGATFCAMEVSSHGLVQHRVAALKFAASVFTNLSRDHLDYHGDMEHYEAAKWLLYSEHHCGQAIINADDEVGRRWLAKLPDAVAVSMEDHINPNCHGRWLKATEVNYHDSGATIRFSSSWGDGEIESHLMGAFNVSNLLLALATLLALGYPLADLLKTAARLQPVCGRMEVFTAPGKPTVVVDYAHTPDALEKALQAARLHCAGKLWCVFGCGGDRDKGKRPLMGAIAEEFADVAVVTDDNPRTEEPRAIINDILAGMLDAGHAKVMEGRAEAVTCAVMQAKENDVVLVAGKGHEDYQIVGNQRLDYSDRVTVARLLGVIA", "assay": "ATP-dependent MurE activity, pyruvate kinase/lactate dehydrogenase coupled enzyme assay (ADP formation)", "format": "biochemical", "details": "recombinant MurE from E. coli; 25° C., pH 8.0; ADP formed per min per mg", "procedure": "(§1) The ATP-dependent MurE activity was assayed by monitoring the formation of product ADP using the pyruvate kinase and lactate dehydrogenase coupled enzyme assay. The reaction was monitored spectrophotometrically.\n(§2) Typically, the assay contained 100 mM BIS-TRIS-propane, pH 8.0, 200 μM NADH, 1 mM ATP, 20 mM PEP, 5 mM MgCl2, 1 mM DTT, 350 μM UDP-N-acetyl-muramyl-L-alanine-D-Glutamine, 1 mM m-Dap, 33 units/ml of pyruvate kinase and 1660 units/ml of lactate dehydrogenase in a final volume of 200 or 400 μl. The mixture was incubated at 25° C. for 5 min and the reaction initiated by the addition of 1-10 μg of MurE. These conditions are one example of an assay useful for evaluating the activity of MurE. Other assays can be used, or amounts of buffers, substrate and enzyme can be changed, as desired, to alter the rate of production of ADP.\n(§3) ADP formation was monitored by the decrease in absorbance at 340 nm as a function of time using a MOLECULAR DEVICES SPECTRAMAXPLUS™ microtiterplate spectrophotomer (for 200 μl assays) or a HEWLETT-PACKARD HP8452A spectrophotometer equipped with a circulating water bath (for 400 μl assays). Rates were calculated from the linear portions of the progress curves using the extinction coefficient for NADH, e=6220 cm^−1 M-1. One unit of MurE activity is equal to 1 μmol of ADP formed per min at 25° C."}, "P. aeruginosa MurE": {"biological_target": "T2, P. aeruginosa MurE (Pseudomonas aeruginosa, UniProt Q59650)", "T2 construct": "6xHis (pET-15b) (N); made in house; host or cells: E. coli BL21(DE3)/pLysS, plasmid pPaeMurE (pET-15b)", "T2 sequence (Q59650 whole entry, looked up)": "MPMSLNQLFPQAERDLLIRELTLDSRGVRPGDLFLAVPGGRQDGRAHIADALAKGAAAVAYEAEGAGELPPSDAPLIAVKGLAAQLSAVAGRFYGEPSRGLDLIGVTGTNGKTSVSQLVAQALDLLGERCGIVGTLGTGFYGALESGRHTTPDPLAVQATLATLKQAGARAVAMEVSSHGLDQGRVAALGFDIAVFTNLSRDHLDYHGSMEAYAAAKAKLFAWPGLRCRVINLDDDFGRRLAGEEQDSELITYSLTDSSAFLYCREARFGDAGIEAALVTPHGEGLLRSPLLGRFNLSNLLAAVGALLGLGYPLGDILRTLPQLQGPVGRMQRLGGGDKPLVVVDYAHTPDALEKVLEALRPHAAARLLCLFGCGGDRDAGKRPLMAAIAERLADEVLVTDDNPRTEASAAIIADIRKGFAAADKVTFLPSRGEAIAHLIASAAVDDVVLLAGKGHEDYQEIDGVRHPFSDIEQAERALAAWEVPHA", "assay": "ATP-dependent MurE activity, pyruvate kinase/lactate dehydrogenase coupled enzyme assay (ADP formation)", "format": "biochemical", "details": "recombinant MurE from P. aeruginosa; 25° C., pH 8.0; ADP formed per min per mg", "procedure": "as §1, §2, §3"}}, "data": [{"molecule": "UDP-N-acetylmuramoyl-L-alanyl-D-glutamate:meso-2,6-diaminopimelate ligase (protein, listed as Pseudomonas aeruginosa, His tag) MPMSLSQLFPQAERDLLIRELTLDSHGVRPVDLFLTVPGGHQDGRAHIADALTKGATAVAYEAEGAGELPPSDAPLIAVKGLAAQLSAVAGRFYGEPSRGLDLIGVTGTNGKTSVSQLVAQALDLLGERCGIVGTLGTGFYGALESGRHTTPDPLAVQATLATLKQAGARAVAMEVSSHGLDQGRVAALGFDIAVFTNLSRDHLDYHGSMEAYAAAKAKLFAWPDLRCRVINLDDDFGRRLAGEEQDSELITYSLTDSSAFLYCREARFGDAGIEAALVTPHGEGLLRSPLLGRFNLSNLLAAVGALLGLGYPLGDILRTLPQLQGPVGRMQRLGGGGKPLVVVDYAHTPDALEKVLEALRPHAAARLLCLFGCGGDRDAGKRPLMAAIAERLADEVLVTDDNPRTEASAAIIADIRKGFAAADKVTFLPSRGEAIAHLIASAAVDDVVLLAGKGHEDYQEIDGVRHPFSDIEQAERALAAWEVPHA", "values": [{"measurement": "Specific activities of recombinant MurE, E. coli", "setting": "E. coli MurE", "value": 0.68, "unit": "µmol/min/mg"}, {"measurement": "Specific activities of recombinant MurE, P. aeruginosa", "setting": "P. aeruginosa MurE", "value": 3.31, "unit": "µmol/min/mg"}]}]}
